The assay deals with GST. Description: AUC; sedimentation velocity, 40 μM GST, 25 mM HEPES pH 7.4, 500 mM NaCl, 4°C.

GST, sequence (P08515 2-218): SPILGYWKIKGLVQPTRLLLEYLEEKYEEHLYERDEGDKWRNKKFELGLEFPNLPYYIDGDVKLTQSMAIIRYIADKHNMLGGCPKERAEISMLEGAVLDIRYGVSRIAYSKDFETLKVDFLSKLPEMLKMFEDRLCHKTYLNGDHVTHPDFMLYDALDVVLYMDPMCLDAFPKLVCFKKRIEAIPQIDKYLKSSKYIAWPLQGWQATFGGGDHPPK

Turning to GST, the stoichiometry N came out at 2.

(Values after PMC7308479.)
